The source of these data is patent US20230392135, “ENGINEERED CAS ENDONUCLEASE VARIANTS FOR IMPROVED GENOME EDITING” (PIONEER HI-BRED INTERNATIONAL, INC., published 2023).

Common to all, as to conditions: tags: SV40 NLS; chain copies: 2
For series [1], the target named is T1, Cas-alpha 10 E81G (Syntrophomonas palmitatica, UniProt P0DW62 SEQ:1-497).
T1 chain: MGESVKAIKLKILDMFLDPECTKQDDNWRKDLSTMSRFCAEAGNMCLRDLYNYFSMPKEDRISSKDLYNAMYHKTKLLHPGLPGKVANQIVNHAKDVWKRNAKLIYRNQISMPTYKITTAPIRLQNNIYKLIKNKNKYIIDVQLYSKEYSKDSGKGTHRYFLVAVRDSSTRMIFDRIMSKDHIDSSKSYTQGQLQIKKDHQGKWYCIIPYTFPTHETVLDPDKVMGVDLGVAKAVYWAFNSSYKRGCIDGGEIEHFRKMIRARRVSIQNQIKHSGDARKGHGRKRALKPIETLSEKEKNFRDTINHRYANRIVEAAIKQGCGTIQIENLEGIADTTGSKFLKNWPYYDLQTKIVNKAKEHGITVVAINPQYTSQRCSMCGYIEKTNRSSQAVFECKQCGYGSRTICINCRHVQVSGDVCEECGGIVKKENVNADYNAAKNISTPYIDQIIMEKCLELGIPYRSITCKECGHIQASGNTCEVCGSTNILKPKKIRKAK
As to the kind of experiment: cell_activity; PAM 5'-TTC; yeast, 45 C.

Series [2] has as its target T2, Cas-alpha 10 A40G (Syntrophomonas palmitatica, UniProt P0DW62 SEQ:1-497).
T2 chain: T1 chain with A40G, G81E
As to the kind of experiment: cell_activity; PAM 5'-TTC; yeast, 45 C.

Series [3] deals with T3, Cas-alpha 10 A40G+E81G (Syntrophomonas palmitatica, UniProt P0DW62 SEQ:1-497).
T3 chain: T1 chain with A40G
As to the kind of experiment: cell_activity; PAM 5'-TTC; yeast, 45 C; >10-fold sectored colonies at 37 C. On the procedure: The cells were then resuspended in 1 ml of EZ 2 solution and aliquoted and either stored at −70° C. or used in the next step. Transformation was performed next by adding 0.5-1 μg (in less than 5 μl) of 2 micron yeast plasmid DNA to 50 μl of competent cells. Optionally, double-stranded DNA repair template with homology flanking the expected Cas-alpha double-strand break site was also included (0.5 μl at 50 μM). After gently mixing in the DNA, 500 μl of EZ 3 solution was added. Next, cells were incubated at 30° C. for 60-90 min. flicking or vortexing the cells 3-4 times over the duration of the incubation. After transformation, cells were grown-out in YPD broth for ˜3 hours, pelleted, washed once with 1 ml of sterile water, resuspended in 1 ml of sterile water, and then ˜200 μl plated onto selective media (for example but not limited to 6.7 g/L yeast nitrogen base without amino acids (Becton Dickinson), 20 g/L glucose (Phytotechnology Labs), 1.92 g/L yeast histidine dropout media (MP Biomedicals) and 20 g/L Bacto Agar (Becton Dickinson)). To determine the culture conditions optimal for activity, cells were incubated at 30° C. until colonies formed, or at a range of temperatures (typically 37° C. and 45° C.) overnight and then placed back at 30° C. until colony growth was visible. […]

The target of series [4] is T3, Cas-alpha 10 A40G+E81G. The experiment in a line: cell_activity; PAM 5'-TTC; maize, 37 C.
Series [5] concerns the target T4, Cas-alpha 10 A40G+E81G+T335R (Syntrophomonas palmitatica, UniProt P0DW62 SEQ:1-497).
T4 chain: T1 chain with A40G, T335R
As to the kind of experiment: cell_activity; PAM 5'-TTC; maize, 37 C.

Where a chain is given by its changes, count along the chain named.

B1: sgRNA1, ade2 target 2, 20 nt spacer ; ade2 target 2 (ssRNA ; dsDNA)
RNA: AUUUACUCUGUUUCGCGCGCCAGGGCAGUUAGGUGCCCUAAAAGAGCGAAGUGGCCGAAAGGAAAGGCUAACGCUUCUCUAACGCUACGGCGACCUUGGCGAAAUGCCAUCAAUACCACGCGGCCCGAAAGGGUUCGCGCGAAACUGAGUAAUGAAAGUCGCAUCUUGCGUAAGCGCGUGGAUUGAAACUUUAGUGUAGGAACAUCAAC
DNA 1: TTTAGTGTAGGAACATCAAC
DNA 2: GTTGATGTTCCTACACTAAA
Turning to B1, the binding signal in series [1] is ~2 fold vs wild type (red colonies, score 2); in series [2] it was ~2 fold vs wild type (red colonies, score 2); in series [3], ~3 fold vs wild type (red colonies, score 2).

B2: sgRNA IR ; IR target (ssRNA ; dsDNA)
RNA: AUUUACUCUGUUUCGCGCGCCAGGGCAGUUAGGUGCCCUAAAAGAGCGAAGUGGCCGAAAGGAAAGGCUAACGCUUCUCUAACGCUACGGCGACCUUGGCGAAAUGCCAUCAAUACCACGCGGCCCGAAAGGGUUCGCGCGAAACUGAGUAAUGAAAGUCGCAUCUUGCGUAAGCGCGUGGAUUGAAACCACAGGGAGGGAGCAAACAA
DNA 1: CACAGGGAGGGAGCAAACAA
DNA 2: TTGTTTGCTCCCTCCCTGTG
With B2, the binding signal in series [4] is about 5 fold vs wild type indels; in series [5], about 17 fold vs wild type indels.
